# Data from paper PMC2789667 (Biochemistry, 2009).
# B1: Recombinant rat NADPH-cytochrome P450 reductase with a single amino acid mutation of K56Q (enzyme, UniProt P00388 1-678, looked up)
# chain: MGDSHEDTSATMPEAVAEEVSLFSTTDMVLFSLIVGVLTYWFIFRKKKEEIPEFSQIQTTAPPVKESSFVEKMKKTGRNIIVFYGSQTGTAEEFANRLSKDAHRYGMRGMSADPEEYDLADLSSLPEIDKSLVVFCMATYGEGDPTDNAQDFYDWLQETDVDLTGVKFAVFGLGNKTYEHFNAMGKYVDQRLEQLGAQRIFELGLGDDDGNLEEDFITWREQFWPAVCEFFGVEATGEESSIRQYELVVHEDMDVAKVYTGEMGRLKSYENQKPPFDAKNPFLAAVTANRKLNQGTERHLMHLELDISDSKIRYESGDHVAVYPANDSALVNQIGEILGADLDVIMSLNNLDEESNKKHPFPCPTTYRTALTYYLDITNPPRTNVLYELAQYASEPSEQEHLHKMASSSGEGKELYLSWVVEARRHILAILQDYPSLRPPIDHLCELLPRLQARYYSIASSSKVHPNSVHICAVAVEYEAKSGRVNKGVATSWLRAKEPAGENGGRALVPMFVRKSQFRLPFKSTTPVIMVGPGTGIAPFMGFIQERAWLREQGKEVGETLLYYGCRRSDEDYLYREELARFHKDGALTQLNVAFSREQAHKVYVQHLLKRDREHLWKLIHEGGAHIYVCGDARNMAKDVQNTFYDIVAEFGPMEHTQAVDYVKKLMTKGRYSLDVWS
# Target: the molecule itself
# Experiment: SEC
protein,measurement,value
B1,binding result,binds
